Assay results taken from the supplement of paper PMC9170038.

Tested on: MS2 coat protein
Test: apparent KD of MS2 coat protein; designed switch direction (-1 OFF switch, 1 ON switch): -1; higher = weaker reporter binding
In short: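 SNAP-549-labelled MS2 coat protein was titrated, doubling from 0.7 or 1.5 nM to 3 µM, over designed RNA switches transcribed on Illumina chips by stalled E. coli RNA polymerase. Runs were done without input, with 200 uM small-molecule ligand, or with an oligonucleotide input. Apparent KD is the per-design median over clusters of curve-fitted normalised fluorescence.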

[1] = Eterna round: R95, input ligand: microRNA oligo, concentration not stated
[2] = input ligand: microRNA oligo, concentration not stated
[3] = Eterna round: R95, input ligand: FMN 200 uM
[4] = Eterna round: R95, input ligand: none

| Sequence | apparent KD of MS2 coat protein (input ligand: FMN 200 uM) [nM] | apparent KD of MS2 coat protein (input ligand: none) [nM] | also measured |
| --- | --- | --- | --- |
| UGGGUCCAAGGAUAUACAUGAGGAUCACCCAUGUGAGAUUCGAUGCUGUGCCAAUUGUGUAGAAGGUGGCCACC [Eternabot (L2) Solution 32] (Eterna round: R97, puzzle: Exclusion 3) | 45.3 | 44.1 | – |
| GUCAGACGAGGAUAUAAACGAUAUAACAUGAGGAUCACCCAUGUACGAUCGAAUGAUCGUUUAGAAGGCGUCUGAC [E5/10-A4] (Eterna round: R97, puzzle: Exclusion 5) | 17.3 | 16.7 | – |
| CCGCAAAUGUAGGAUAUCGUAUCGGAUACGAUACGAGAAGGGCAUACAUGAGGAUCACCCAUGUGUCCUAGCGG [Fiskers Ex 6 - 44] (puzzle: Exclusion 6) | – | – | apparent KD of MS2 coat protein [1]: 12 nM |
| GCUAGGAGUGUGAGGAUAUGCAGUUCCUUGGAACUGCAGAAGGCACAUGAGGAUCACCCAUGUGAAGACCUAGC [Mat - Exclusion 4 - JL Mod - D4] (Eterna round: R97, puzzle: Brourd's mod of Exclusion 4) | 212 | 26.6 | – |
| UAUUAGCAAGCAACUGGGUACAUGAGGAUCACCCAUGUGCUCGUCUUAUAAGGUACUGUGACGAAAGUUACGGUACC [mod--Eli115] (Eterna round: R97, puzzle: Sensor, turn-off variant 1) | 17.9 | 17.4 | – |
| CCUCAGUAAGGAUAUCAGCUUAAGGAGGUGGUAAAGAGAGCUGAGAAGGUACAUGAGGAUCACCCAUGUUAAAA [Zatite] (Eterna round: R96, puzzle: Exclusion 4) | 193 | 57.2 | apparent KD of MS2 coat protein [2]: 47.1 nM |
| CGUGUGUAAGGAUAUUUUGCAAGGCGGUGGACCCGCCUAUUAGAGAAGGUACAUGAGGAUCACCCAUGUGAGCC [Eternabot (L2) Solution 74] (Eterna round: R97, puzzle: Exclusion 4) | 58.2 | 42.3 | – |
| GCUGGUCGAGGAUAUACAUGAGGAUCACCCAUGUGAUUAGCAGUCCUCGGACUGCAAUGUAGAAGGUGACCAGC [E3/2-B1] (Eterna round: R97, puzzle: Exclusion 3) | 907 | 198 | – |
| GUUAUGUCAGGAUAUGCUAAUGAUGAAUGAUCAGACAUAAUGUAGAAGGGACAUGAGGAUCACCCAUGUAAUAU [EX4 #6] (Eterna round: R97, puzzle: Exclusion 4) | 29.4 | 23.3 | – |
| GUUCAGUCAGGAUAUCAAUCCGCCUGUGAUACGCAGGCGGCUGAGAAGGGACAUGAGGAUCACCCAUGUAAAGA [jl-ex4-4.21 ViennaUCT mod] (Eterna round: R97, puzzle: Exclusion 4) | 51.1 | 37.1 | – |
| GUAAAGUGAGGAUAUGGUAAAUUAAUUAUUAAUUAAUUAAUCCAGAAGGCACAUGAGGAUCACCCAUGUUAAUG [Mat - Exclusion 4 - D89] (puzzle: Exclusion 4) | – | – | apparent KD of MS2 coat protein [3]: 50.9 nM; apparent KD of MS2 coat protein [1]: 28.6 nM; apparent KD of MS2 coat protein [4]: 34.5 nM |
| AGCUAGUCAGGAUAUUCUAAUAAUUACAUGAGGAUCACCCAUGUGCAUAGACAAGGGUGUGAAGAAGGGACUAGCG [Omei Ex5 A7] (Eterna round: R97, puzzle: Exclusion 5) | 797 | 2530 | – |
| ACGUAUAGAGGAUAUAGUGAAUAUUACAUGAGGAUCACCCAUGUUCUUCAAAGUAUAUUUCUAGAAGGCUAAUGAA [EX-5 Malc#10] (puzzle: Exclusion 5) | – | – | apparent KD of MS2 coat protein [1]: 35.5 nM |
| UAAUGUAUAUAGGAUAUCUAGCUGGUAACAGCUAGAGAAGGAUGUACAUGAGGAUCACCCAUGUAAAUCGAUCA [Ex6/11-A2] (Eterna round: R97, puzzle: Exclusion 6) | 83.3 | 24.4 | – |
| AUAGAGUCAGGAUAUUGCGCAGUGGACAUGAGGAUCACCCAUGUGAACUUCGUACCGGGCCAAGAAGGGACGGAAA [Onedra] (puzzle: Exclusion 5) | – | – | apparent KD of MS2 coat protein [3]: 96.6 nM; apparent KD of MS2 coat protein [1]: 21.5 nM; apparent KD of MS2 coat protein [4]: 31.1 nM |
| ACAUAUGACUAGGAUAUCACUAGCGAUAGCUAGUGAGAAGGAGUCACAUGAGGAUCACCCAUGUGCUCCAAUAA [Mod5 Ex6/6-A4 by Brourd] (Eterna round: R97, puzzle: Exclusion 6) | 16.3 | 15.1 | – |
| CCGGAAAUGCAGGAUAUCGUAUCGGAUACGAUACGAGAAGGGUAGACAUGAGGAUCACCCAUGUGUCCUACCGG [Fiskers Ex 6 - 50] (puzzle: Exclusion 6) | – | – | apparent KD of MS2 coat protein [3]: 110 nM; apparent KD of MS2 coat protein [1]: 78.6 nM; apparent KD of MS2 coat protein [4]: 101 nM |
| GAUCAGCUUGUGAGGAUAUCCGGGCUUAAAGGCUAGGAGAAGGUACAUGAGGAUCACCCAUGUAGAGUCCUGGG [Zageesen] (puzzle: Brourd's mod of Exclusion 4) | – | – | apparent KD of MS2 coat protein [1]: 50.4 nM |
| UAUUAGCAAGCGAGAUCCCACAUGAGGAUCACCCAUGUGCUCGUCUUAUAAAAGACUGUGACGAUAGUCACGGUCAC [Mat - Sensor, turn-off var - Eli Mod - D22] (Eterna round: R97, puzzle: Sensor, turn-off variant 1) | 14.2 | 13.1 | – |
| GGUUGGCGAGGAUAUACAUGAGGAUCACCCAUGUGAGAGAAUAAAGUGAGAAAGAAAAGUAGAAGGCGCUGACA [Mat - Exclusion 3 - Mod of Salish D51] (puzzle: Exclusion 3) | – | – | apparent KD of MS2 coat protein [3]: 900 nM; apparent KD of MS2 coat protein [1]: 46.9 nM; apparent KD of MS2 coat protein [4]: 63.9 nM |
| GCAAGCUUUUUGGUUUUCAACAUGAGGAUCACCCAUGUUCGUCUUGUGCUCGGGCUUGGGCGGUGUCCGGGUUUGGG [Default title] (Eterna round: R97, puzzle: Sensor, turn-off variant 1) | 45.8 | 48.5 | – |
| CCUCCACAUGAGGAUCACCCAUGUCAGGAUAUCGCGCGCGCGUUUUCGGUCUUUCGCGCGAGAAGGGACGACUG (puzzle: Exclusion 1) | – | – | apparent KD of MS2 coat protein [1]: 29 nM |
| CAUAUACAUGAGGAUCACCCAUGUGAGGAUAUGCUUUAUUAUUAUUAUUAUUAUUAUUGCAGAAGGUACAUUAC [LRO-Excl01-12] (Eterna round: R97, puzzle: Exclusion 1) | 23.9 | 24.6 | – |
| GAGAACUGAGGAUAUACAUGAGGAUCACCCAUGUGAAGAAGAAAGUAGUGAUGGUUGGGUAGAAGGCAGAGAGA [JR_Ex3_Sub065] (Eterna round: R97, puzzle: Exclusion 3) | 52.4 | 46.3 | – |
| AGCUAGUGCCGAGGAUAUGAUACAUGAGGAUCACCCAUGUGUAGGGUGUAUAUAUAUCAAUAAUAUUAGAAGGCGGCGUUGGCA [JL ENG2 1.47] (Eterna round: R96, puzzle: Exclusion NG 2) | 785 | 1480 | apparent KD of MS2 coat protein [2]: 480 nM |
| UAAACUUGCUUCCGAUCCUACAUGAGGAUCACCCAUGUGCUCGUCUUGUAUCGUACUGUGACGUUAGUCACGGUACG [mod my first] (Eterna round: R97, puzzle: Sensor, turn-off variant 1) | 477 | 464 | – |
| AGGUAGUCAGGAUAUUAGGAGUAGCGGGAUAACGCUACGAGUGAGAAGGGACAUGAGGAUCACCCAUGUUUUGU [JR_Ex4_Sub068] (Eterna round: R97, puzzle: Exclusion 4) | 24.3 | 23.1 | – |
